Tests used:
[1] = target: T1, LukSF (Staphylococcus aureus); assay: cell-based or functional assay
[2] = target: T2, HlgAB (Staphylococcus aureus, UniProt P0A074 30-309); assay: cell-based or functional assay
T2 sequence 1: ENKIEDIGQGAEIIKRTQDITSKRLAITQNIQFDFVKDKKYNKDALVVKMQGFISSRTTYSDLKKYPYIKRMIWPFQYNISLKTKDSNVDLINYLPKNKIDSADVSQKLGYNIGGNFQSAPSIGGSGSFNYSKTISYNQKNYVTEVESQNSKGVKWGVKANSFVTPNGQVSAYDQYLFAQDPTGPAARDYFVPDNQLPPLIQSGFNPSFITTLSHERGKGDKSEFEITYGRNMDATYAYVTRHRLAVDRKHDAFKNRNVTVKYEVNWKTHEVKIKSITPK
T2 sequence 2: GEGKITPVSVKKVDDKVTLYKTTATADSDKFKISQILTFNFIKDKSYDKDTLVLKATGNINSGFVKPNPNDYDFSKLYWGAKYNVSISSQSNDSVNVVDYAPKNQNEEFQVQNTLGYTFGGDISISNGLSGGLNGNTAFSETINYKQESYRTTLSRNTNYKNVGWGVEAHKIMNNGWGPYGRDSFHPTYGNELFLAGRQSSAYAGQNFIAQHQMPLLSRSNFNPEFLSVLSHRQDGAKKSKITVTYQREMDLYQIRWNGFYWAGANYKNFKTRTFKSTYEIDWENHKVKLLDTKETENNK

[3] = target: T3, S. aureus LukF (Staphylococcus aureus); assay: method not stated at Table 8; BLI (Octet) is described in Example 4
[4] = target: T1, LukSF; assay: cell-based or functional assay; remark: listed apart in the source
[5] = target: T2, HlgAB; assay: cell-based or functional assay; remark: listed apart in the source
[6] = target: T3, S. aureus LukF; assay: BLI (Octet384), antibody captured on anti-human IgG Fc biosensors, antigen in solution; light-stressed sample
[7] = target: T4, S. aureus HlgB (Staphylococcus aureus, UniProt P0A075 27-325); assay: as above
T4 construct: also called HIgB
T4 sequence: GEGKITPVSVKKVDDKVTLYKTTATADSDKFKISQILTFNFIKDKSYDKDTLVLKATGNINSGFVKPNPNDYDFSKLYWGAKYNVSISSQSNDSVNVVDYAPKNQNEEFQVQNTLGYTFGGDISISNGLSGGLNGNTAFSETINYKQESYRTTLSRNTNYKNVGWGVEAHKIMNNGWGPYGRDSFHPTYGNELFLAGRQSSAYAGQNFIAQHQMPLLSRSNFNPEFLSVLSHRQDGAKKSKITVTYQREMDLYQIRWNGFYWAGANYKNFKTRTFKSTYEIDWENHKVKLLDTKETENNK

[8] = target: T5, S. aureus LukD (Staphylococcus aureus, UniProt Q2FXB1 27-327); assay: as above
T5 sequence: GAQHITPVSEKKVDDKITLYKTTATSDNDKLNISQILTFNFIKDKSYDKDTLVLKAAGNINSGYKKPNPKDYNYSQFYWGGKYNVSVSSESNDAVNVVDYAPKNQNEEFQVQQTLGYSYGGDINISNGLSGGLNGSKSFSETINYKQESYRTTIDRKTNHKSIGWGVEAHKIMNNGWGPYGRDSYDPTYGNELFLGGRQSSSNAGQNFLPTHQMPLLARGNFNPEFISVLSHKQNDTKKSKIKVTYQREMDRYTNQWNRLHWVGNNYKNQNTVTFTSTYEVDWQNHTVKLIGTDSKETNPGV

[9] = target: T3, S. aureus LukF; assay: BLI (Octet384), antibody captured on anti-human IgG Fc biosensors, antigen in solution; dark sample
[10] = target: T4, S. aureus HlgB; assay: as above
[11] = target: T5, S. aureus LukD; assay: as above
[12] = target: T1, LukSF; assay: cell-based or functional assay; remark: listed apart in the source
[13] = target: T2, HlgAB; assay: cell-based or functional assay; remark: listed apart in the source
[14] = target: T6, HlgCB (Staphylococcus aureus, UniProt Q07227 30-315); assay: cell-based or functional assay
T6 sequence 1: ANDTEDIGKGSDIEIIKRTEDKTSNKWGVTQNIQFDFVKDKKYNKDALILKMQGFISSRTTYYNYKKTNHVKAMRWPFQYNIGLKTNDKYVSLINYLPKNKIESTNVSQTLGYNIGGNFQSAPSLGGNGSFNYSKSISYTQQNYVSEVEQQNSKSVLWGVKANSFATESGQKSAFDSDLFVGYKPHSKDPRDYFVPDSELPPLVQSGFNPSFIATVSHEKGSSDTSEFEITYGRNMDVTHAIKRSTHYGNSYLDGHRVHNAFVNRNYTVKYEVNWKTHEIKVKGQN
T6 sequence 2: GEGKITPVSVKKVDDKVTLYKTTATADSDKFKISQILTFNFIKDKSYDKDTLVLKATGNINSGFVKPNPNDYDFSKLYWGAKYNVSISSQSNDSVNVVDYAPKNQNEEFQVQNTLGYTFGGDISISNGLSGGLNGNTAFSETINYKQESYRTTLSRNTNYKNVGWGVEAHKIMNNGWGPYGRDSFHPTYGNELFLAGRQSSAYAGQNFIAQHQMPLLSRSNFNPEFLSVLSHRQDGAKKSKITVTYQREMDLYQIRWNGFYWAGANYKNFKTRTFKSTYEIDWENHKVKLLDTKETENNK

[15] = target: T1, LukSF; assay: cell-based or functional assay; remark: listed apart in the source
[16] = target: LukED (Staphylococcus aureus, UniProt O54081 29-314); assay: cell-based or functional assay

B1: SAN481-TF-YTE (antibody, V domains shown)
VH: QLQLVESGGGAVQPGRSLKLSCAASGFTFSTYAMHWVRQAPGRGLEWVAVTSFDGSNEYYIDSVKGRFTISRDNTKNTLYLQMTGLRVEDTALYFCARDEYTGGFYSVGYWGQGTLVTVSS
VL: QSVLTQPPSASGTPGQRVTISCSGNSYNIGSNSVYWYQQFPGTAPKLLISRSIQRPSGVPDRFSGSKSVTSASLAISGLRSEDEADYYCAAWDDSLRAWVFGGGTKLTVLG
notes: also called QD4; SAN481-VH28T100E-YTE
**Q.** B1 was tested. Which “IC50 Fold loss vs. WT (LukSF)” value [1] did it give?
**A.** 5.07 fold

**Q.** What about the “IC50 for LukSF” value [1] of the same binder?
**A.** 0.811 µg/mL

**Q.** And the “IC50 Fold loss vs. WT (HIgAB)” value [2]?
**A.** 0.775 fold

**Q.** And the “IC50 for HIgAB” value [2]?
**A.** 0.441 µg/mL

**Q.** And the Kd [3]?
**A.** 1.21 nM

**Q.** What about the “IC50 (LukSF) HL-60” value [4] of the same binder?
**A.** 0.81 µg/mL

**Q.** What about the “IC50 (HIgAB) HL-60” value [5] of the same binder?
**A.** 0.44 µg/mL

B2: SAN481-SYT-YTE (antibody, V domains shown)
VH: QLQLVESGGGAVQPGRSLKLSCAASGFTFSTYAMHWVRQAPGRGLEWVAVTSFDGSNEYYIDSVKGRFTISRDNTKNTLYLQMTGLRVEDTALYFCARDEYTGGWYSVGYWGQGTLVTVSS
VL: QSVLTQPPSASGTPGQRVTISCSGSSYNIGSNYVYWYQQFPGTAPKLLISRSIQRPSGVPDRFSGSKSVTSASLAISGLRSEDEADYYCAAWDDSLRAWVFGGGTKLTVLG
notes: also called QD5
**Q.** Which results are given for B2?
**A.** Kd [6]: < 0.001 nM; koff [6]: < 1e-07 s⁻¹; kon [6]: 257000 M⁻¹ s⁻¹; Kd [7]: < 0.001 nM; koff [7]: < 1e-07 s⁻¹; kon [7]: 244000 M⁻¹ s⁻¹; Kd [8]: < 0.001 nM; koff [8]: < 1e-07 s⁻¹; kon [8]: 263000 M⁻¹ s⁻¹; IC50 Fold loss vs. WT (LukSF) [1]: 1.01 fold; IC50 for LukSF [1]: 0.162 µg/mL; IC50 Fold loss vs. WT (HIgAB) [2]: 0.951 fold; IC50 for HIgAB [2]: 0.54 µg/mL; Kd [9]: 0.101 nM; koff [9]: 3.69e-05 s⁻¹; kon [9]: 365000 M⁻¹ s⁻¹; Kd [10]: 0.0191 nM; koff [10]: 4.88e-06 s⁻¹; kon [10]: 255000 M⁻¹ s⁻¹; Kd [11]: < 0.001 nM; koff [11]: < 1e-07 s⁻¹; kon [11]: 279000 M⁻¹ s⁻¹; IC50 (LukSF) HL-60; Dark sample [12]: 0.163 µg/mL; IC50 (LukSF) HL-60; Light sample [12]: 0.184 µg/mL; IC50 (HIgAB) HL-60; Dark sample [13]: 0.576 µg/mL; IC50 (HIgAB) HL-60; Light sample [13]: 0.645 µg/mL; Kd [3]: 0.101 nM; IC50 (LukSF) HL-60 [4]: 0.16 µg/mL; IC50 (HIgAB) HL-60 [5]: 0.54 µg/mL; IC50 (read off the curve) [14]: ~2 µg/mL; IC50 (read off the curve) [15]: ~0.4 µg/mL; IC50 (read off the curve) [16]: ~4 µg/mL

B3: SAN481-SY-YTE (antibody, V domains shown)
VH: QLQLVESGGGAVQPGRSLKLSCAASGFNFSTYAMHWVRQAPGRGLEWVAVTSFDGSNEYYIDSVKGRFTISRDNTKNTLYLQMTGLRVEDTALYFCARDEYTGGWYSVGYWGQGTLVTVSS
VL: QSVLTQPPSASGTPGQRVTISCSGSSYNIGSNYVYWYQQFPGTAPKLLISRSIQRPSGVPDRFSGSKSVTSASLAISGLRSEDEADYYCAAWDDSLRAWVFGGGTKLTVLG
notes: also called QD2; SAN481VL26S32Y-YTE
**Q.** Which results are given for B3?
**A.** IC50 Fold loss vs. WT (LukSF) [1]: 1.14 fold; IC50 for LukSF [1]: 0.183 µg/mL; IC50 Fold loss vs. WT (HIgAB) [2]: 0.97 fold; IC50 for HIgAB [2]: 0.551 µg/mL; IC50 (LukSF) HL-60; Dark sample [12]: 0.221 µg/mL; IC50 (LukSF) HL-60; Light sample [12]: 0.241 µg/mL; IC50 (HIgAB) HL-60; Dark sample [13]: 0.721 µg/mL; IC50 (HIgAB) HL-60; Light sample [13]: 0.736 µg/mL; Kd [3]: 0.101 nM; IC50 (LukSF) HL-60 [4]: 0.18 µg/mL; IC50 (HIgAB) HL-60 [5]: 0.55 µg/mL

From US20200109190A1 (AstraZeneca / MedImmune, published 2020)
